Measured values reported in FireProtDB (doi:10.1093/protein/12.7.581).

B1: Alpha-lactalbumin, P00711 (parent)
chain: MMSFVSLLLVGILFHATQAEQLTKCEVFRELKDLKGYGGVSLPEWVCTTFHTSGYDTQAIVQNNDSTEYGLFQINNKIWCKDDQNPHSSNICNISCDKFLDDDLTDDIMCVKKILDKVGINYWLAHKALCSEKLDQWLCEKL

Variants of: B1
Details: Bos taurus; pH 7.4; Thermal; CD; Tris-HCl 20 mM; CaCl2 1 mM; reversible: yes(>95%); structure 1HFZ; whole UniProt chain shown

Variant: MMSFVSLLLVGILFHATQAEQLTKCEVFRELKDLKGYGGVSLPEWVCTTFHTSGYDTQAIVQNNDSTEYGLFQINNKIWCKDDQNPHSSNICNISCDKFLDDDLTDDIMCVKKILDKVGINYWLSHKALCSEKLDQWLCEKL
- change of melting temperature, mutant - wild type (higher = more stable): -6.1 °C
- ddG of mutation (higher = less stable): 1.05 kcal/mol
- unfolding enthalpy (van 't Hoff): 51.6 kcal/mol

Variant: MMSFVSLLLVGILFHATQAEQLTKCEVFRELKDLKGYGGVSLPEWVCTTFHTSGYDTQAIVQNNDSTEYGLFQINNKIWCKDDQNPHSSNICNISCDKFLDDDLTDDIMCVKKILDKVGINYWLAWKALCSEKLDQWLCEKL
- change of melting temperature, mutant - wild type (higher = more stable): -8.7 °C
- ddG of mutation (higher = less stable): 1.72 kcal/mol
- unfolding enthalpy (van 't Hoff): 57.8 kcal/mol

Variant: MMSFVSLLLVGILFHATQAEQLTKCEVFRELKDLKGYGGVSLPEWVCTTFHTSGYDTQAIVQNNDSTEYGLFQINNKIWCKDDQNPHSSNICNISCDKFLDDDLTDDIMCVKKILDKVGINYWLAHKAHCSEKLDQWLCEKL
- change of melting temperature, mutant - wild type (higher = more stable): 6.3 °C
- ddG of mutation (higher = less stable): -1.39 kcal/mol
- unfolding enthalpy (van 't Hoff): 77.4 kcal/mol

Variant: MMSFVSLLLVGILFHATQAEQLTKCEVFRELKDLKGYGGVSLPEWVCTTFHTSGYDTQAIVQNNDSTEYGLFQINNKIWCKDDQNPHSSNICNISCDKFLDDDLTDDIMCVKKILDKVGINYWLAHKALCSENLDQWLCEKL
- change of melting temperature, mutant - wild type (higher = more stable): 10.7 °C
- ddG of mutation (higher = less stable): -2.65 kcal/mol
- unfolding enthalpy (van 't Hoff): 91.3 kcal/mol

Variant: MMSFVSLLLVGILFHATQAEQLTKCEVFRELKDLKGYGGVSLPEWVCTTFHTSGYDTQAIVQNNDSTEYGLFQINNKIWCKDDQNPHSSNICNISCDKFLDDDLTDDIMCVKKILDKVGINYWLAHKALCSEKLDQYLCEKL
- change of melting temperature, mutant - wild type (higher = more stable): -5.4 °C
- ddG of mutation (higher = less stable): 1.17 kcal/mol
- unfolding enthalpy (van 't Hoff): 67.2 kcal/mol
